B1: SABA4: SABA core with a scaffold mutation; same BC, DE, FG loops as SABA5; in Table 5 stands for SABA4.1 (protein)
chain: EMVAATPTSLLISWEDDSYYSRYYRITYGETGGNSPVQEFTVPSDLYTATISGLKPGVDYTITVYAVTYDVTDLIMHEPISINYRT
B2: FGF21-SABA1v1: fusion in which the SABA moiety is at the C-terminus of FGF21, SEQ ID NO: 171; 300 aa; DNA SEQ ID NO: 180 (protein)
chain: MPIPDSSPLLQFGGQVRQRYLYTDDAQQTEAHLEIREDGTVGGAADQSPESLLQLKALKPGVIQILGVKTSRFLCQRPDGALYGSLHFDPEACSFRELLLEDGYNVYQSEAHGLPLHLPGNKSPHRDPAPRGPARFLPLPGLPPALPEPPGILAPQPPDVGSSDPLSMVGPSQGRSPSYASGGSGSGSGSGSGSGSGVSDVPRDLEVVAATPTSLLISWHSYYEQNSYYRITYGETGGNSPVQEFTVPYSQTTATISGLKPGVDYTITVYAVYGSKYYYPISINYRTEIDKPSQHHHHHH
B3: SABA2: SABA core sequence from PROfusion; in Table 5 stands for SABA2.1 (protein)
chain: EVVAATPTSLLISWPKYDKTGHYYRITYGETGGNSPVQEFTVPTRQTTATISGLKPGVDYTITVYAVSKDDYYPHEHRPISINYRT
B4: SABA4.1: HSA binding clone of SABA4 (protein)
chain: MGVSDVPRDLEMVAATPTSLLISWEDDSYYSRYYRITYGETGGNSPVQEFTVPSDLYTATISGLKPGVDYTITVYAVTYDVTDLIMHEPISINYRTEIDKPSQHHHHHH
modifications: His6 tag
B5: SABA1: serum albumin binding 10Fn3 core sequence, SEQ ID NO: 4; in Table 5 stands for SABA1.1 (protein)
chain: EVVAATPTSLLISWHSYYEQNSYYRITYGETGGNSPVQEFTVPYSQTTATISGLKPGVDYTITVYAVYGSKYYYPISINYRT
B6: SABA3: SABA core sequence from PROfusion; in Table 5 stands for SABA3.1 (protein)
chain: EVVAATPTSLLISWSNDGPGLSYYRITYGETGGNSPVQEFTVPSSQTTATISGLKPGVDYTITVYAVSYYTKKAYSAGPISINYRT

How the values were obtained:
RhSA = RhSA (Macaca mulatta, UniProt Q28522); test: Biacore kinetics of SABAs on immobilized serum albumin: RhSA; assay type: binding, rhesus; settings: for Kd: target RhSA
RhSA, sequence (Q28522 17-600): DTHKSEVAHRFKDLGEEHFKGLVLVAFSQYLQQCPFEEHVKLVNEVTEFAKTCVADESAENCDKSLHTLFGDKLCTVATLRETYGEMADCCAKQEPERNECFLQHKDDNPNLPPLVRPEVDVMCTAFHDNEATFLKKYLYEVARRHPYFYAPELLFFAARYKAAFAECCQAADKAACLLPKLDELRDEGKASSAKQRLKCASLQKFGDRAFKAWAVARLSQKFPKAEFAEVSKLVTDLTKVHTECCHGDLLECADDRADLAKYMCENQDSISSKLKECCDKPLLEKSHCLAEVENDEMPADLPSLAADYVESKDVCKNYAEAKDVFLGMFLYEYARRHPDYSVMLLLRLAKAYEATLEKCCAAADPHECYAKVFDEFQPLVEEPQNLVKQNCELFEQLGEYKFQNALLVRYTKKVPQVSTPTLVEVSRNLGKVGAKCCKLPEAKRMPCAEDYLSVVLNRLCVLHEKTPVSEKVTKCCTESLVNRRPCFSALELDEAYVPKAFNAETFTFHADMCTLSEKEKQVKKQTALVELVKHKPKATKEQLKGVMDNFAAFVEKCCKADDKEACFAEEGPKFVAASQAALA
Experimental: (§1) In addition, binding to albumin was carried out under various pH conditions ranging from pH 5.5 to pH 7.4.

[1] = Half-life of HSA and of SABA1-4 with or without HSA in mice (ELISA, WinNonlin); assay type: in vivo, Ncr nude female mice; settings: for PK (T½) Mice: co-injected with HSA (3-4 molar excess), tail vein
Experimental: The pharmacokinetic parameters of each Adnectin™ were determined using non-compartmental modeling with WinNonlin software.

HSA = HSA (Homo sapiens, UniProt P02768); settings: for Resistant to pH 7.4→5.5?: binding to HSA from pH 7.4 down to pH 5.5, symbols not defined
Experimental: as §1

[2] = Pharmacokinetics of His-tagged FGF21 and SABA-FGF21 fusions in monkeys; assay type: in vivo, cynomolgus monkeys; settings: monkeys
Experimental: Various in vivo studies were conducted in mice and monkeys to characterize the pharmacokinetics of His-tagged FGF21 and SABA1-FGF21v1. An ELISA-based ligand binding assay was used to measure the His-tagged FGF21 and SABA1-FGF21v1 in all mouse and monkey plasma samples.
Following subcutaneous administration, His-tagged FGF21 was well absorbed.
Following subcutaneous administration, SABA1-FGF21v1 was well absorbed.

MuSA = MuSA (Mus musculus, UniProt P07724); test: Biacore kinetics of SABAs on immobilized serum albumin: MuSA; assay type: binding
MuSA, sequence (P07724 25-608): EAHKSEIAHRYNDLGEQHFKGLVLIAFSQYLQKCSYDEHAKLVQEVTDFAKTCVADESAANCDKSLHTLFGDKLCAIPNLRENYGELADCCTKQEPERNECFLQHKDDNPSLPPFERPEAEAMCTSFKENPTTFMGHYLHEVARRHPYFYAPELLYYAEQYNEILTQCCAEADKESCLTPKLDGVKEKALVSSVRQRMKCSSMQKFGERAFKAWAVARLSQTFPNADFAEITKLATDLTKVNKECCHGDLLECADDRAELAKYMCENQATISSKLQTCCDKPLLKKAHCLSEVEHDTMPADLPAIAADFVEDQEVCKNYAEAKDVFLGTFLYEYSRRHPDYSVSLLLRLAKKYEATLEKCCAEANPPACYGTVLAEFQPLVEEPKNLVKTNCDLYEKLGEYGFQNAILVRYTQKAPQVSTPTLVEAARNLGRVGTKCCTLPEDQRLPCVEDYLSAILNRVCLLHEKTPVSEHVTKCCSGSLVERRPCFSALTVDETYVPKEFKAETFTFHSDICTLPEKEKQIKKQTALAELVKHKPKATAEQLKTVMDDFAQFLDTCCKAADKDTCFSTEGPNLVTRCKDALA

[3] = intravenous, His-tagged FGF21 0.5 mg/kg, SABA1-FGF21v1 0.08 mg/kg

| Molecule | Kd (RhSA) [nM] | PK (T½) Mice [1] [h] | Kd (HSA) [nM] | Resistant to pH 7.4→5.5? (HSA) | other results |
| --- | --- | --- | --- | --- | --- |
| B1 | > 1000 | 4.6 | 412 | pH sensitive | – |
| B2 | – | – | – | – | increase of t1/2 compared to His-tagged FGF21 [2]: ~27 fold; CL (total body plasma clearance, CLTp) [2, 3]: 1.2 mL/h/kg; T½ (terminal half-life) [2, 3]: 50.3 h; Vdss (steady-state volume of distribution, Vss) [2, 3]: 0.06 L/kg |
| B3 | 63.6 | – | 33.8 | pH sensitive | – |
| B4 | – | 4.6 | – | – | Comments: binding affinity for RhSA (RhSA): Poor binding affinity for RhSA.; cross reaction with RhSA (RhSA): cross reacted; cross reaction with MuSA (MuSA): did not cross react; half-life in mice plasma ([1]; injected without HSA): 39.6 min; increase in half life when co-injected with HSA ([1]; with HSA vs without HSA, mice): ~7 fold; Comments: decrease in KD observed at pH <6.0 (HSA; pH <6.0): >2-fold decrease in KD observed at |
| B5 | 778 | – | 47.2 | – | – |
| B6 | 431 | – | 863 | pH resistant binding to HSA down to pH 6.0 | – |
